This is an account of results in publication PMC5057103, “Crystal structure of a DNA aptamer bound to PvLDH elucidates novel single-stranded DNA structural elements for folding and recognition”.

One data set deals with hLDH-B (Homo sapiens, UniProt P07195 2-334). As to the kind of experiment: EMSA; with or without Mg2+ and EDTA; EMSA: 20 mM HEPES pH 8.0, 5% glycerol, 50 mM NaCl, 5 mM KCl, 5 mM MgCl2 (or none), 5 mM DTT, 10 pmol DNA + 200 pmol protein in 20 ul, 1 h room temperature, gel. The conditions noted are these: protein: commercial; chain copies: 4; hairpin with bulge; stem I T3-A34 to A6-T31, stem II G16-C30 to G20-C26, hairpin-bulge contact A22-T12, A21-T13. For orientation: A gel shift assay detects complexes by their altered migration in electrophoresis.

Another data set concerns the target hLDH-A (Homo sapiens, UniProt P00338 2-332). The data set is described as above.
A further data set deals with PvLDH (Plasmodium vivax, UniProt Q4PRK9 1-316). Put plainly: X-ray crystal structure. To be noted: protein: recombinant; tags: His-tag (pET28a, Histrap); chain copies: 2.

hLDH-B, sequence (P07195 2-334): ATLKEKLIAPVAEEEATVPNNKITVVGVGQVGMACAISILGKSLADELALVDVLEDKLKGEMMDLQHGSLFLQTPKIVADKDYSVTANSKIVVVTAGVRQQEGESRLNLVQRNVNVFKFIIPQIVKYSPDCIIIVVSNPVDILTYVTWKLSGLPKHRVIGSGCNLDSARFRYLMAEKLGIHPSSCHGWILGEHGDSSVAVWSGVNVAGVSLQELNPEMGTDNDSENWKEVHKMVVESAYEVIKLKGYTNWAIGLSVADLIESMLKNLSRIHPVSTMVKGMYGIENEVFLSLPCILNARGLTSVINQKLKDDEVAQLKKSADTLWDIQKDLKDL

Turning to GTTCGATTGGATTGTGCCGGAAGTGCTGGCTCGAAC (structured_DNA) [pL1], the binding result in the data set with hLDH-B is “no binding”; in the data set with hLDH-A it was “no binding”; with PvLDH, “binds”.
